Measurements taken from article doi:10.1101/545814 (bioRxiv, 2019).

T1: MBP-Epe1 (wild-type, recombinant, full length) (S. pombe, UniProt O94603 1-948)
T1 sequence: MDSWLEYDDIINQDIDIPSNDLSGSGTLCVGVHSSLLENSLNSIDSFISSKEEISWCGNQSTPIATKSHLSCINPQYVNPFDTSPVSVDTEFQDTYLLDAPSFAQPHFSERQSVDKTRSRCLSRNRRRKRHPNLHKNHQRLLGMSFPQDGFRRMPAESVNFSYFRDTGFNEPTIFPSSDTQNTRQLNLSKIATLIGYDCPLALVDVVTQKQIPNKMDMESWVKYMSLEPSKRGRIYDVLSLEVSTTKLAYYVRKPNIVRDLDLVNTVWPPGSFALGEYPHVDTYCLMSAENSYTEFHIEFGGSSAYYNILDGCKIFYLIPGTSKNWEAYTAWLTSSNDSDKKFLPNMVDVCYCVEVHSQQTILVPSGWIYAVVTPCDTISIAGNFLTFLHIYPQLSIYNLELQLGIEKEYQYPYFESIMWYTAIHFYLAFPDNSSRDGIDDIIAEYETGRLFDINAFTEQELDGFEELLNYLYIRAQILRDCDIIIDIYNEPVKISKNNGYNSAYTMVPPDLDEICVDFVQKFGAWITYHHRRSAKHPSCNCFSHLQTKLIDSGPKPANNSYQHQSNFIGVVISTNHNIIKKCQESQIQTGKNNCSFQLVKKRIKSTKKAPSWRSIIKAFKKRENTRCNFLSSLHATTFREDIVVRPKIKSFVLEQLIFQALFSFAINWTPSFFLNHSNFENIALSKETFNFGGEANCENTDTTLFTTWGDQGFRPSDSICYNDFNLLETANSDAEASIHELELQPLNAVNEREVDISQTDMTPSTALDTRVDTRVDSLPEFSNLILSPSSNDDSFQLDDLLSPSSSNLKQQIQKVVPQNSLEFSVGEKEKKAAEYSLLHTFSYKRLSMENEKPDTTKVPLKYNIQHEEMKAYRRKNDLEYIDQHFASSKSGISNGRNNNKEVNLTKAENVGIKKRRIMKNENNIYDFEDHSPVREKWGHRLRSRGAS

T2: MBP-Epe1^434-948 (S. pombe, UniProt O94603 434-948)
T2 sequence: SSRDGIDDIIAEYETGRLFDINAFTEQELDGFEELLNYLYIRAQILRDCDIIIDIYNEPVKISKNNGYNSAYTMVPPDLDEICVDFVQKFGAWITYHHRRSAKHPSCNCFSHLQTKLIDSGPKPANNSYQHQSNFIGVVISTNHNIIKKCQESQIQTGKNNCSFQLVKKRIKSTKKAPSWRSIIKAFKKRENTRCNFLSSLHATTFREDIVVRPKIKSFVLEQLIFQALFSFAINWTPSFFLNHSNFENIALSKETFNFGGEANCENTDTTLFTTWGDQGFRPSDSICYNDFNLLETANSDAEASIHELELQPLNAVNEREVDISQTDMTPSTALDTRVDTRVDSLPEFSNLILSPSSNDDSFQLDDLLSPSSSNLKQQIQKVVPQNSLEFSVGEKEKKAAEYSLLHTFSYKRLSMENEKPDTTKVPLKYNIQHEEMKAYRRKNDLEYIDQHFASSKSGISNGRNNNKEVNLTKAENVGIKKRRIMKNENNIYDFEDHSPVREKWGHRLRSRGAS

B1: 3X FLAG-Swi6^HP1 (recombinant, E. coli) (natural protein)
chain: MKKGGVRSYRRSSTSKRSVIDDDSEPELPSMTKEAIASHKADSGSSDNEVESDHESKSSSKKLKENAKEEEGGEEEEEDEYVVEKVLKHRMARKGGGYEYLLKWEGYDDPSDNTWSSEADCSGCKQLIEAYWNEHGGRPEPSKRKRTARPKKPEAKEPSPKSRKTDEDKHDKDSNEKIEDVNEKTIKFADKSQEEFNENGPPSGQPNGHIESDNESKSPSQKESNESEDIQIAETPSNVTPKKKPSPEVPKLPDNRELTVKQVENYDSWEDLVSSIDTIERKDDGTLEIYLTWKNGAISHHPSTITNKKCPQKMLQFYESHLTFRENE

Tests used:
Test in all cases: pull-down
[1] = target: T1, MBP-Epe1 (wild-type, recombinant, full …)
[2] = target: T2, MBP-Epe1^434-948
[3] = target: B1

Row | binding result [1] | binding result [2] | binding result [3] | Binder
1 | binds | – | – | 3X-FLAG Swi6^HP1 W104A (natural protein) MKKGGVRSYRRSSTSKRSVIDDDSEPELPSMTKEAIASHKADSGSSDNEVESDHESKSSSKKLKENAKEEEGGEEEEEDEYVVEKVLKHRMARKGGGYEYLLKAEGYDDPSDNTWSSEADCSGCKQLIEAYWNEHGGRPEPSKRKRTARPKKPEAKEPSPKSRKTDEDKHDKDSNEKIEDVNEKTIKFADKSQEEFNENGPPSGQPNGHIESDNESKSPSQKESNESEDIQIAETPSNVTPKKKPSPEVPKLPDNRELTVKQVENYDSWEDLVSSIDTIERKDDGTLEIYLTWKNGAISHHPSTITNKKCPQKMLQFYESHLTFRENE
2 | binds | binds | – | B1
3 | binds | – | – | 3X FLAG-Swi6^HP1 purified from fission yeast cells (natural protein) MKKGGVRSYRRSSTSKRSVIDDDSEPELPSMTKEAIASHKADSGSSDNEVESDHESKSSSKKLKENAKEEEGGEEEEEDEYVVEKVLKHRMARKGGGYEYLLKWEGYDDPSDNTWSSEADCSGCKQLIEAYWNEHGGRPEPSKRKRTARPKKPEAKEPSPKSRKTDEDKHDKDSNEKIEDVNEKTIKFADKSQEEFNENGPPSGQPNGHIESDNESKSPSQKESNESEDIQIAETPSNVTPKKKPSPEVPKLPDNRELTVKQVENYDSWEDLVSSIDTIERKDDGTLEIYLTWKNGAISHHPSTITNKKCPQKMLQFYESHLTFRENE
4 | – | – | binds | MBP-Epe1^434-600 (domain or fragment) SSRDGIDDIIAEYETGRLFDINAFTEQELDGFEELLNYLYIRAQILRDCDIIIDIYNEPVKISKNNGYNSAYTMVPPDLDEICVDFVQKFGAWITYHHRRSAKHPSCNCFSHLQTKLIDSGPKPANNSYQHQSNFIGVVISTNHNIIKKCQESQIQTGKNNCSFQLV
